Assay results as given in patent US20250136686A1 (GUANGDONG KEGUANDA PHARMACEUTICAL TECHNOLOGY, published 2025).
Substitutions are numbered along the chain they refer to. Each block holds one binder with its values, some of them ahead of it.

Experiments:
[1] = target: T1, CD101 (human, UniProt Q93033 21-1021); assay: FACS
T1 chain: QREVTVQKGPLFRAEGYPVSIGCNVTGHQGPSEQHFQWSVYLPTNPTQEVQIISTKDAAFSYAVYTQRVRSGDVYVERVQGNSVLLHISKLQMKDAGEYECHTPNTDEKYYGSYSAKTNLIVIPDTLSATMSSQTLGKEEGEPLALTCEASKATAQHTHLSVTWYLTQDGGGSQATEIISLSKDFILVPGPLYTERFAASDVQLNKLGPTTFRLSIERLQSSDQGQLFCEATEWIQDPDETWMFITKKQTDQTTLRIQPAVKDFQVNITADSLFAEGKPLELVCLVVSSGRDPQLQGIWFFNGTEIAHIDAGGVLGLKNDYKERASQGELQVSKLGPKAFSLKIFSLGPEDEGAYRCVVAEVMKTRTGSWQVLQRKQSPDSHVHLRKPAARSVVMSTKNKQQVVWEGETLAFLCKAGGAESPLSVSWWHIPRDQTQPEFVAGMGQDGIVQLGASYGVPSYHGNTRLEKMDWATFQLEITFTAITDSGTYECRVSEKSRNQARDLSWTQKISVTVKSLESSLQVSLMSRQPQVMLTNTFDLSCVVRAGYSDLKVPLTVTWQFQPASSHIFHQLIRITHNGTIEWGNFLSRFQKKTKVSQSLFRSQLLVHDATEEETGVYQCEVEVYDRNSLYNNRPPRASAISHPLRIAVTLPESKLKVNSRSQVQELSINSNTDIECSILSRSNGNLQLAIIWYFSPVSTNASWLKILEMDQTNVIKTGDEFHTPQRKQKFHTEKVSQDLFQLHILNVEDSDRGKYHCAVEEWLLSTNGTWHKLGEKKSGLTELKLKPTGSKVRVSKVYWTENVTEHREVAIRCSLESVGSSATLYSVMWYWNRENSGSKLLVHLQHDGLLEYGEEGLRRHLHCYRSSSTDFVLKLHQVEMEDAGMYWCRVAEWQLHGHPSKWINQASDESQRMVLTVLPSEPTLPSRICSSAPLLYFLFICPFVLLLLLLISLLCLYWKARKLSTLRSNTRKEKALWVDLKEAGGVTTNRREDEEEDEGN

[2] = target: T2, CD101 (human, UniProt Q93033 21-1021); assay: cell-based or functional assay
T2 sequence (looked up): T1 chain

[3] = target: T2, CD101; assay: FACS, culture supernatant on 293F-CD101 cells
Experimental: Expression vectors for humanized antibodies carrying a designed heavy-chain or light-chain sequence were transiently transfected into 293F cells in pairs according to a standard protocol. Specifically, PBS was added at 2 mL/well to a 6-well plate, then 2 μg of a pcDNA3.4-IgG1 expression vector and 2 μg of a pcDNA3.4-IgKc expression vector were added, and thorough mixing was conducted by pipetting up and down. 12 μL of a LVTransm transfection reagent was added, then thorough mixing was immediately conducted by pipetting up and down, and the plate was allowed to stand at room temperature for 10 min. A DNA/LVTransm complex was added to 3 mL of 293F cells, and gentle shaking was conducted for thorough mixing. The cells were further cultured for 3 d in a 37° C. and 5% CO₂ incubator, and a culture supernatant was collected through centrifugation and tested by FACS.
FACS was conducted according to a standard protocol. […] Cells were washed with PBS 3 times. 100 μL of a secondary antibody (PE-anti-human IgG, which was diluted 1:200) was added, thorough mixing was conducted, and incubation was conducted for 45 min at room temperature in the dark. Cells were washed with PBS 3 times and then resuspended with 500 μL of PBS. A fluorescence intensity was read by a multimode microplate reader for FACS analysis. […] In the follow-up experiments, the four combinations of VH1-VL1, VH1-VL2, VH3-VL1, and VH3-VL2 (hu.CA1 to hu.CA4) were taken as examples for antibody purification and affinity testing.

- EC50 [1]: 8.49 µg/mL
- inhibitory effect for CD101 (flow cytometry of CD101 on Jurkat cells overexpressing CD101, 3 h, 1,600 ng/mL) [2]: ~80%
- inhibitory effect for CD101 (flow cytometry of CD101 on Jurkat cells overexpressing CD101, 8 h, 1,600 ng/mL) [2]: ≥ 90%
B1: 19-A11-H3-B11-VH3VL2 humanized antibody (hu.CA4) (antibody, V domains shown)
VH: EVQLVQSGAEVKKPGASVKVSCKASGFTLTEYTIHWVRQAPGQGLEWIGWFYPGSGGIKYNEKFQDRVTLTADTSISTVYMELSRLRSDDTVVYFCARHAFYRNYEYFDVWGTGTMVTVSS
VL: DIVMTQAPLSLPVTPGTPASISCRSSKSLLHSNGITYLYWYLQKPGQSPQLLIYQMSNLASGVPDRFSSSGSGTDFTLKISRVEAEDVGVYYCAQNLELPLTFGAGTKLEIK

- EC50 [1]: 9.1 µg/mL
- inhibitory effect for CD101 (flow cytometry of CD101 on Jurkat cells overexpressing CD101, 3 h, 1,600 ng/mL) [2]: ~80%
- inhibitory effect for CD101 (flow cytometry of CD101 on Jurkat cells overexpressing CD101, 8 h, 1,600 ng/mL) [2]: ≥ 90%
B2: humanized antibody VH1-VL2 (hu.CA2) (antibody, V domains shown)
VH: B1 VH with T74E, V92A
VL: B1 VL

- EC50 [1]: 7.9 µg/mL
- inhibitory effect for CD101 (flow cytometry of CD101 on Jurkat cells overexpressing CD101, 3 h, 1,600 ng/mL) [2]: ~80%
- inhibitory effect for CD101 (flow cytometry of CD101 on Jurkat cells overexpressing CD101, 8 h, 1,600 ng/mL) [2]: ≥ 90%
B3: humanized antibody VH1-VL1 (hu.CA1) (antibody, V domains shown)
VH: B1 VH with T74E, V92A
VL: B1 VL with L9F

- EC50 [1]: 6.62 µg/mL
- inhibitory effect for CD101 (flow cytometry of CD101 on Jurkat cells overexpressing CD101, 3 h, 1,600 ng/mL) [2]: ~80%
- inhibitory effect for CD101 (flow cytometry of CD101 on Jurkat cells overexpressing CD101, 8 h, 1,600 ng/mL) [2]: ≥ 90%
B4: 19-A11-H3-B11 chimeric antibody (CA1) (antibody, V domains shown)
VH: EVQLQQSGAELVRPGASVKLSCKASGFTLTEYTIHWVKQRSGQGLEWIGWFYPGSGGIKYNEKFKDKATLTADESSSTVYMELSRLTSEDSAVYFCARHAFYRNYEYFDVWGTGTTVTVSS
VL: B1 VL with P8A, L9F, L11N, P15L, P18S, K79R, I111L

- EC50 [1]: 11 µg/mL
- inhibitory effect for CD101 (flow cytometry of CD101 on Jurkat cells overexpressing CD101, 3 h, 1,600 ng/mL) [2]: ~80%
- inhibitory effect for CD101 (flow cytometry of CD101 on Jurkat cells overexpressing CD101, 8 h, 1,600 ng/mL) [2]: ≥ 90%
B5: humanized antibody VH3-VL1 (hu.CA3) (antibody, V domains shown)
VH: B1 VH
VL: B1 VL with L9F

- binding result [3]: binds
B6: humanized antibody VH4-VL3 (antibody, V domains shown)
VH: B1 VH with R38K, T74E, I76S, V92A
VL: B1 VL with L9F, L11S, P15L, L42Q, K44R, Q50R
notes: IgG1, kappa; tested as culture supernatant; also called VH-HM4 / VL-HM3

- binding result [3]: binds
B7: humanized antibody VH2-VL2 (antibody, V domains shown)
VH: B1 VH with T74E, I76A, R85S, D89E, V92A
VL: B1 VL
notes: IgG1, kappa; tested as culture supernatant; also called VH-HM2 / VL-HM2

- binding result [3]: binds
B8: humanized antibody VH4-VL1 (antibody, V domains shown)
VH: B1 VH with R38K, T74E, I76S, V92A
VL: B1 VL with L9F
notes: IgG1, kappa; tested as culture supernatant; also called VH-HM4 / VL-HM1

- binding result [3]: binds
B9: humanized antibody VH2-VL1 (antibody, V domains shown)
VH: B1 VH with T74E, I76A, R85S, D89E, V92A
VL: B1 VL with L9F
notes: IgG1, kappa; tested as culture supernatant; also called VH-HM2 / VL-HM1

- binding result [3]: binds
B10: humanized antibody VH4-VL2 (antibody, V domains shown)
VH: B1 VH with R38K, T74E, I76S, V92A
VL: B1 VL
notes: IgG1, kappa; tested as culture supernatant; also called VH-HM4 / VL-HM2

- binding result [3]: binds
B11: humanized antibody VH2-VL3 (antibody, V domains shown)
VH: B1 VH with T74E, I76A, R85S, D89E, V92A
VL: B1 VL with L9F, L11S, P15L, L42Q, K44R, Q50R
notes: IgG1, kappa; tested as culture supernatant; also called VH-HM2 / VL-HM3

- binding result [3]: binds
B12: humanized antibody VH1-VL3 (antibody, V domains shown)
VH: B1 VH with T74E, V92A
VL: B1 VL with L9F, L11S, P15L, L42Q, K44R, Q50R
notes: IgG1, kappa; tested as culture supernatant; also called VH-HM1 / VL-HM3

- binding result [3]: binds
B13: humanized antibody VH3-VL3 (antibody, V domains shown)
VH: B1 VH
VL: B1 VL with L9F, L11S, P15L, L42Q, K44R, Q50R
notes: IgG1, kappa; tested as culture supernatant; also called VH-HM3 / VL-HM3
